{"source": "patent US20170362314A1", "about": "(CANCER RESEARCH TECHNOLOGY, published 2017)", "binders": {"B1": {"name": "114_3H1 IgG (human IgG2) (antibody, V domains shown)", "VH": "QVQLVQSGAEVKKPGASVKVSCKVSGYTLTELSMHWVRQAPGKGLEWMGGFDPEDGETIYAQKFQGRVTMTEDTSTDTAYMELSSLGSEDTAVYYCARRVWGSYRPNDAFDIWGQGTLVTVSS", "VL": "DIQMTQSPSSLSASVGDRVTITCRASQSISDYVNWYQQKPGKAPNLLMFAASTSQSGVPSRFTGSGSGTDFTLTISSLQPEDFATYFCQQSYSPPYTFGQGTKVEIKR"}, "B2": {"name": "114_3H1 Fab (Fab, V domains shown)", "VH": "B1 VH", "VL": "B1 VL", "notes": "Fab expressed from pBIOCAM-7 in HEK-293F cells, with hexa-histidine and tri-FLAG tags"}, "B3": {"name": "113_1H12 in a human IgG2 format (antibody, V domains shown)", "VH": "EVQLVQSGAEVKKPGASVKVSCKTSGYTFTNYGISWVRQAPGQGLEWMGWISAYNGNTNYAQKLQGRVTMTTDTSTSTAYMELRSLRSDDTAVYYCARAGGVYYDYFTDYWGQGTMVTVSS", "VL": "QSELTQPPSASGTPGQRVTISCSGSRSNIGSNSVNWYQQLPGTAPKLLIYNNDERPSGVPDRFSGSKSGTSASLAISGLQSEDEADYFCAAWDDSLNVGELFGGGTKLTVLG"}, "B4": {"name": "113_1H12 Fab (Fab, V domains shown)", "VH": "B3 VH", "VL": "B3 VL", "notes": "as for B2"}}, "key": {"[1]": {"target": "human CXCL12 (soluble ligand in the cell migration assays) (human, UniProt P48061-2 22-89, limits assumed)", "sequence (P48061 22-89 limits assumed)": "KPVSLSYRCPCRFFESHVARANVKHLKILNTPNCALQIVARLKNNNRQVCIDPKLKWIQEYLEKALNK", "test": "cell-based or functional assay"}, "[2]": {"target": "T1, biotinylated CXCL12 (synthesised 68 amino acid CXCL12) (human, UniProt P48061 22-89, biotinylated (site not stated))", "T1 construct": "also called SDF-1", "T1 sequence (P48061 22-89 limits assumed)": "as above", "test": "SPR: Fab over biotinylated CXCL12 on a streptavidin chip", "protocol": "(§1) FIG. 3. Affinity measurement of anti-CXCL12 antibodies using SPR A) Sensograms of multiple concentrations of lead and parental anti-CXCL12 Fabs binding to biotinylated CXCL12 immobilised on a streptavidin chip (carboxymethylated dextran matrix pre-immobilised with streptavidin). […] The equilibrium dissociation constant (KD) of the parent clone 093_2D06 was calculated using steady state binding model due to its very fast off-rate. […] The binding constants of these antibodies were determined using two-state binding model. Biacore T100 evaluation software was used for all calculations.\n(§2) The lead anti-CXCL12 antibodies and their parent clones were subjected to a full kinetic analysis to determine the improvement in binding constants after affinity maturation. The binding of the Fab antibodies to biotinylated CXCL12 immobilised on a streptavidin chip was analysed using SPR (FIG. 3). Equilibrium dissociation constants (KD) of these antibodies were determined using a binding model appropriate for each binding interaction (FIGS. 3B and C). […] Such binding profiles are generally associated with binding interactions that involve antibody (or any other analyte) induced conformational change of the ligand resulting in a two-step binding. […]"}, "[3]": {"target": "T1, biotinylated CXCL12 (synthesised 68 …)", "test": "affinity constant for human CXCL12, Fab format; method not restated; comparison with WO 2008/018641; method not restated"}, "[4]": {"target": "T1, biotinylated CXCL12 (synthesised 68 …)", "test": "SPR (Biacore T100), Fab over biotinylated CXCL12 immobilised on a streptavidin chip, 1:1 Langmuir binding model [panel B table]", "protocol": "as §1, §2"}, "[5]": {"target": "T1, biotinylated CXCL12 (synthesised 68 …)", "test": "SPR (Biacore T100), Fab over biotinylated CXCL12 immobilised on a streptavidin chip, 1:1 Langmuir binding model [Continued) (panel B table]", "protocol": "as §1, §2"}, "[6]": {"target": "T1, biotinylated CXCL12 (synthesised 68 …)", "test": "SPR (Biacore T100): Fab over biotinylated CXCL12 on a streptavidin chip, 1:1 Langmuir model; SPR kinetic analysis, Fab over biotinylated CXCL12 on streptavidin chip", "protocol": "as §1, §2"}, "[7]": {"target": "T1, biotinylated CXCL12 (synthesised 68 …)", "test": "SPR: Fab over biotinylated CXCL12 on a streptavidin chip, two-state binding model", "protocol": "as §1, §2"}, "[8]": {"target": "T1, biotinylated CXCL12 (synthesised 68 …)", "test": "SPR (Biacore T100): Fab over biotinylated CXCL12 on a streptavidin chip, two-state binding model; SPR, two-state binding model", "protocol": "as §1, §2"}, "[9]": {"target": "T1, biotinylated CXCL12 (synthesised 68 …)", "test": "SPR (Biacore T100), Fab over biotinylated CXCL12 immobilised on a streptavidin chip, two-state binding model [panel C table]", "protocol": "as §1, §2"}, "[10]": {"target": "T1, biotinylated CXCL12 (synthesised 68 …)", "test": "SPR (Biacore T100), Fab over biotinylated CXCL12 immobilised on a streptavidin chip, two-state binding model [Continued) (panel C table]", "protocol": "as §1, §2"}}, "data": [{"binder": "B1", "values": [{"measurement": "IC50, transwell migration of TOV-21G cells towards CXCL12 (further replicate experiments)", "setting": "[1]", "result": 5, "unit": "nM"}]}, {"binder": "B2", "values": [{"measurement": "fold improvement in affinity from its parent clone 093_2D06", "setting": "[2]", "result": 3800, "unit": "fold"}, {"measurement": "Kd", "setting": "[3]", "result": 2.4, "unit": "nM"}, {"measurement": "kon", "setting": "[4]", "result": 490000, "unit": "M⁻¹ s⁻¹"}, {"measurement": "koff", "setting": "[5]", "result": 0.00051, "unit": "s⁻¹"}, {"measurement": "Kd", "setting": "[6]", "result": 1, "unit": "nM"}]}, {"binder": "B3", "values": [{"measurement": "IC50, transwell migration of TOV-21G cells towards CXCL12 (further replicate experiments)", "setting": "[1]", "result": 9, "unit": "nM"}]}, {"binder": "B4", "values": [{"measurement": "fold improvement in affinity following light chain shuffling (against its parent clone)", "setting": "[7]", "result": 4.5, "unit": "fold"}, {"measurement": "Kd", "setting": "[3]", "result": 4.2, "unit": "nM"}, {"measurement": "Kd", "setting": "[8]", "result": 3.7, "unit": "nM"}, {"measurement": "ka 1", "setting": "[9]", "result": 510000, "unit": "M⁻¹ s⁻¹"}, {"measurement": "kd 1", "setting": "[9]", "result": 0.04, "unit": "s⁻¹"}, {"measurement": "ka 2", "setting": "[10]", "result": 0.015, "unit": "s⁻¹"}, {"measurement": "kd 2", "setting": "[10]", "result": 0.00079, "unit": "s⁻¹"}]}]}
